Assays:
[1] = biological target: Full-length LayV-G (Langya henipavirus attachment glycoprotein G) (Langya henipavirus (LayV)); assay: cryo-EM structure
[2] = biological target: LayV-G extracellular domain (Langya henipavirus attachment glycoprotein G, residues 63-624) (Langya henipavirus (LayV)); assay: SEC + other: non-reducing and reducing SDS-PAGE
[3] = biological target: T1, human ephrinB2 extracellular domain (amino acids 1-227) (human, UniProt P52799 28-227); assay: BLI
T1 chain: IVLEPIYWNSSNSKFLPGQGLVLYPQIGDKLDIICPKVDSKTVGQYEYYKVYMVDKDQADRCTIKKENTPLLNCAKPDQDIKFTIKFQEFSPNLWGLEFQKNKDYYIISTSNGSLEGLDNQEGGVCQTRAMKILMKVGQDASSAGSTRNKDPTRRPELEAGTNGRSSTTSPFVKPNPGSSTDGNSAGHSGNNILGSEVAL

[4] = biological target: T2, human ephrinB3 extracellular domain (amino acids 1-224) (human, UniProt Q15768 28-224); assay: BLI
T2 chain: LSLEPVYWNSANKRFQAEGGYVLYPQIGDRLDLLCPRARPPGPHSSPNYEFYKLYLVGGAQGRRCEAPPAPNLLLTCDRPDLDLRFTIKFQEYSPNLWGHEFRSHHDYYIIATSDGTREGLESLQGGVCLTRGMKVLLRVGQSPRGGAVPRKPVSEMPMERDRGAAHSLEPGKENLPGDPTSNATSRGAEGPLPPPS

**Q.** “Full-length LayV-G (Langya henipavirus attachment glycoprotein G) (natural protein)” was tested. Which stoichiometry N [1] did it give?
**A.** Its stoichiometry N is 4.

**Q.** With “LayV-G extracellular domain (Langya henipavirus attachment glycoprotein G, residues 63-624) (domain or fragment)” as the molecule, how does the stoichiometry N [2] read?
**A.** Its stoichiometry N is 4.

B1: NiV-G ectodomain (Nipah virus attachment glycoprotein G) (domain or fragment)
chain: QNYTRSTDNQAVIKDALQGIQQQIKGLADKIGTEIGPKVSLIDTSSTITIPANIGLLGSKISQSTASINENVNEKCKFTLPPLKIHECNISCPNPLPFREYRPQTEGVSNLVGLPNNICLQKTSNQILKPKLISYTLPVVGQSGTCITDPLLAMDEGYFAYSHLERIGSCSRGVSKQRIIGVGEVLDRGDEVPSLFMTNVWTPPNPNTVYHCSAVYNNEFYYVLCAVSTVGDPILNSTYWSGSLMMTRLAVKPKSNGGGYNQHQLALRSIEKGRYDKVMPYGPSGIKQGDTLYFPAVGFLVRTEFKYNDSNCPITKCQYSKPENCRLSMGIRPNSHYILRSGLLKYNLSDGENPKVVFIEISDQRLSIGSPSKIYDSLGQPVFYQASFSWDTMIKFGDVLTVNPLVVNWRNNTVISRPGQSQCPRFNTCPEICWEGVYNDAFLIDRINWISAGVFLDSNQTAENPVFTVFKDNEILYRAQLASEDTNAQKTITNCFLLKNKIWCISLVEIYDTGDNVIRPKLFAVKIPEQCT
**Q.** How did the Kd [3] turn out when B1 was run?
**A.** Its Kd is 0.19 nM.

**Q.** What about the Kd [4] of the same molecule?
**A.** The Kd was 9.3 nM.

Source: article PMC10821904 (2024)
